The text below walks through data of article PMC5510004, “Recruitment and positioning determine the specific role of the XPF‐ERCC1 endonuclease in interstrand crosslink repair”.

The target in data set [1] is T1, XPF deltaNSGW;ERCC1 wild type (hsERCC1) (Xenopus laevis;Homo sapiens?, UniProt A0A8J0PXV9;P07992 1-897;1-297, del312-315|).
T1 sequence 1: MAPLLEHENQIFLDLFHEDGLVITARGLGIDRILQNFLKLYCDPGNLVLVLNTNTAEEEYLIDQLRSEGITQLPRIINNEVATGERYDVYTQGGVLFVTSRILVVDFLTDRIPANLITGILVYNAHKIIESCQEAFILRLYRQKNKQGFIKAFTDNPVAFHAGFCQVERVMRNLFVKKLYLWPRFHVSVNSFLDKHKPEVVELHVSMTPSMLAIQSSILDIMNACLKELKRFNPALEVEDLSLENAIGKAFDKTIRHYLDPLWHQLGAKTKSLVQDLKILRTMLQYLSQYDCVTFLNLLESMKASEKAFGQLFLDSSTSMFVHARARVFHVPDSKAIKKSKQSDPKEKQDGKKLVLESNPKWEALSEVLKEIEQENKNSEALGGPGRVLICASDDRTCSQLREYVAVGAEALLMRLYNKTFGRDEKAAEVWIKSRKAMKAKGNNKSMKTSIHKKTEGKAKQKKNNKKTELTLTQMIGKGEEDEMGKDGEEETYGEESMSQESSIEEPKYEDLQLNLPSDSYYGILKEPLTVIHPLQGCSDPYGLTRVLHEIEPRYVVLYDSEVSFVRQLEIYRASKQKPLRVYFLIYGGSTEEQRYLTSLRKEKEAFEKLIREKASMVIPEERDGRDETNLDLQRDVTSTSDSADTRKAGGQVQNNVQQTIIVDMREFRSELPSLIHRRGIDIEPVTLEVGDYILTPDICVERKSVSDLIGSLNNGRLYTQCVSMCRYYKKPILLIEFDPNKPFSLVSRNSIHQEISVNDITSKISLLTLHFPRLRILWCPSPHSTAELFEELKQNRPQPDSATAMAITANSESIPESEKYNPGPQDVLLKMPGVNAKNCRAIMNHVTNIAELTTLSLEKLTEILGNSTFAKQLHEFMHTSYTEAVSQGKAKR
T1 sequence 2: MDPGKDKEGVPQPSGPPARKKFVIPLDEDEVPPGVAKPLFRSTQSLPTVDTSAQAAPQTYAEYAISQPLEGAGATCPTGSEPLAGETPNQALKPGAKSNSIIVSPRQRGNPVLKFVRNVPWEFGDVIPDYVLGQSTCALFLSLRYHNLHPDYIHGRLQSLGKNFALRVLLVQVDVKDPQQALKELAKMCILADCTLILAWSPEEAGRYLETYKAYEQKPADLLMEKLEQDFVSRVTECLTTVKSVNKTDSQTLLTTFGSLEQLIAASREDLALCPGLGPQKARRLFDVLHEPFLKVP
In words: fluorescence anisotropy; 2 mM Ca2+; comparable to wild type; 25 mM Hepes pH 8.0, 15% glycerol, 0.1 mg/ml BSA, 2 mM CaCl2, 10 nM DNA, 1 h at room temperature. To be noted: protein: recombinant;recombinant; tags: FLAG;His; copies: 1;1; label: 5'-FAM on F1; three strands 1:1:1.

For data set [2], the target named is T2, XPF C225R;ERCC1 wild type (hsERCC1) (Xenopus laevis;Homo sapiens?, UniProt A0A8J0PXV9;P07992 1-897;1-297, C225R|).
T2 sequence 1: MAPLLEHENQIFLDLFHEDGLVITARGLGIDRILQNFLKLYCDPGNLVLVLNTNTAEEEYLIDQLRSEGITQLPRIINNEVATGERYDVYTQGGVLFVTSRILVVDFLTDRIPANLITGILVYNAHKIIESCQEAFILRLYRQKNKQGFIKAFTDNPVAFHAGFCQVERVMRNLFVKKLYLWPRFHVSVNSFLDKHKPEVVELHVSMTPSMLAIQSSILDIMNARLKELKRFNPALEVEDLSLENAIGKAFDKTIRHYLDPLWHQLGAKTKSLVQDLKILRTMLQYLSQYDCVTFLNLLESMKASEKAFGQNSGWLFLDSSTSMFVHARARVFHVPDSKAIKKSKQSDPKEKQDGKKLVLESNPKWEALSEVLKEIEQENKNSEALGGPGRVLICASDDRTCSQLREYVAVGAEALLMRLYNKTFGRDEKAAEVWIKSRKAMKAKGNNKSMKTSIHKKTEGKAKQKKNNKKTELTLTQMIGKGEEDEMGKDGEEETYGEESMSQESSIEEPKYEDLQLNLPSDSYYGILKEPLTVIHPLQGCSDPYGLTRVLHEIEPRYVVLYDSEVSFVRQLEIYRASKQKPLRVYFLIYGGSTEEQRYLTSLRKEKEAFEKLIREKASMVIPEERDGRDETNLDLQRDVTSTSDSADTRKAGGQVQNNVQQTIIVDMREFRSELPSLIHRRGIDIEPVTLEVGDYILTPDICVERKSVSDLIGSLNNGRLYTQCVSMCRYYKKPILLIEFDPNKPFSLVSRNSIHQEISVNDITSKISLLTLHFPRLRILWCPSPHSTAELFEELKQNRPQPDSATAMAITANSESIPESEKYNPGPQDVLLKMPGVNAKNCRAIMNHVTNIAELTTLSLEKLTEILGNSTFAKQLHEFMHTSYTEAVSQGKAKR
T2 sequence 2: T1 sequence 2
The description is as above. The note with it: protein: recombinant;recombinant; tags: FLAG;His; copies: 1;1; label: 5'-FAM on F1; three strands 1:1:1.

B1: 3' flap DNA substrate (F1+F2+F3) (dsDNA)
DNA 1: CGCGATGCGGATCCAA
DNA 2: CCTAGACTTAAGAGGCCAGACTTGGATCCGCATCGC
DNA 3: GGCCTCTTAAGTCTAGG
Consider B1, for which the binding result in data set [1] and in data set [2] was “binds” in each case.
